Measured values from the supplement of paper PMC10567573.

B1: TRIM15 (parent)
chain: QSSGKILLCPLCQEEEQAETPMAP

Variants of: B1
Test: protein stability index of a GFP-peptide fusion (GPS, HEK-293T) (PSI 1-6); higher = more stable
Conditions: c terminus: a fixed tail appended
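Further: lentivirally expressed fusions sorted by FACS into six bins by GFP to DsRed ratio, PSI derived from sequencing read proportions per bin multiplied by bin number.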

Protein stability index, by site and new letter:
S3: Q 3.63, D 3.07, M 3.24, L 3.3, K 3.21, I 3.31, F 3, E 3.79, G 3.34, N 3.62, C 2.33, W 2.16, Y 2.82, P 3.23, H 2.99, T 3.58, V 3.57, R 3.73
E14: I 2.54, Y 2.5, F 1.73, R 3.3, W 1.73, G 3.64, V 2.75, K 3.14, Q 2.55, M 2.14, D 3.69, A 2.43, P 3.39, C 2.55, N 3.32, T 2.46
C12: F 4.81, W 3.75, Q 5.09, T 5.43, L 4.18, P 5.04, E 5.46, A 4.22, N 4.99, Y 4.54, V 4.62, H 4.66, M 4.86, I 4.68, D 4.87, S 5.23, K 4.93
K5: I 2.17, Y 2.36, E 4.56, D 3.72, C 3.54, F 2.1, Q 3.98, A 3.27, H 3.17, V 2.85, M 2.41, G 3.77, N 3.46, P 3.65, T 3.06, W 2.45, S 3.44, R 3.22, L 2.86
E15: M 2.25, H 2.98, N 2.28, G 2.9, W 1.65, A 3.17, V 2.35, D 2.97, R 1.81, F 2, Q 3.54, Y 2.53, S 2.75, P 2.84, K 3.05, L 2.5, C 2.49, T 2.77
L7: G 3.9, Y 3.15, T 3.31, D 4.35, K 4.51, W 3.29, V 3.48, Q 3.94, H 3.62, P 4.42, S 3.39, M 3.51, C 3.77, I 3.4, F 3.47, A 3.65, N 4.21
T20: F 2.84, W 2.16, H 3.46, D 3.66, Q 3.5, K 4, N 3.4, E 3.92, I 3.5, G 2.49, S 3.5, L 3.8, C 3.54, Y 2.89, R 3.07, A 3.65, P 3.16
Q13: H 2.95, S 3.54, E 4.64, R 2.69, Y 3.31, N 3.65, F 2.61, C 2.79, A 2.77, D 4.25, K 3.85, I 3.26, G 3.46, T 2.69, L 3.12, W 2.35, V 3.91, P 4.49, M 2.84
C9: T 5.22, S 5.41, L 4, W 4.24, I 3.84, P 5.54, N 5.59, H 5.15, Q 3.61, R 5.71, M 4.5, F 4.38, K 5.6, Y 4.36, A 5.01
A23: D 3.96, C 3.71
P21: K 2.43, D 3.93, R 1.83, N 3.85, I 2.88, Y 2.68, S 3.76, Q 3.39, C 3.94, E 3.18, G 3.19, T 3.16, V 3.73, M 2.45, L 2.86, F 3.13, H 2.98, A 3
E19: Q 2.61, T 3.09, F 2.06, I 2.77, K 3.94, R 2.99, C 2, W 1.52, A 3.12, P 2.34, N 2.87, S 2.51, Y 2.96, M 2.19, G 3.09
E16: P 3.28, Q 1.72, C 2.55, F 2.23, D 3.31, M 2.34, Y 3.08, W 2.71, N 3.1, V 2.01, I 2.69, L 2.06, S 2.59, K 3.08, G 2.78, T 2.61
G4: F 2.49, V 2.94, N 2.76, I 3.34, S 2.86, K 4.13, R 3.72, M 3.3, P 3.24, T 3.66, W 2.21, L 2.93, Y 3.4, A 3.07, D 4.24, C 4.14, Q 3.29, E 3.72, H 2.96
L11: I 3.94, E 4.72, M 3.78, C 3.28, N 5.01, Q 4.24, W 3.52, H 3.68, V 4.09, T 4.81, P 5.27, D 4.98, S 4.7, F 3.42, G 4.63, K 4.54, R 4.3, Y 3.01
A18: I 3.98, C 3.33, S 3.74, L 3.25, P 4.04, D 3.76, N 3.44, H 3.29, E 3.34, F 2.19, M 3.1, G 2.73, Y 2.89, T 3.61
P10: A 3.35, M 2.75, H 3.42, E 4.06, N 4.4, Y 2.71, S 3.56, G 4.31, C 3.77, V 1.82, F 2.13, Q 3.77, I 1.99
L8: D 4.91, W 2.93, A 4.32, M 3.79, T 3.48, P 4.34, N 4.45, C 3.46, S 3.99, K 3.83, Y 3.28, G 4.08, E 5.11, H 3.96, R 3.34, Q 4.23
I6: C 3.94, E 3.62, Q 3.37, N 4.13, A 4.26, L 3.79, M 3.72, G 3.53, R 3.41, Y 4.04, P 4.11, S 3.39, F 3.76, H 3.15, D 4.77, K 4.23, T 3.89
Q17: T 3.63, H 3.05, S 3.67, Y 2.87, F 2.55, C 2.23, D 3.38, M 3.02, N 3.49, G 3.74, R 2.76, P 4.21, I 2.88, E 2.95, V 2.82, A 2.98, K 3.29
M22: I 3.45, Y 3.08, K 3.16, G 4.22, T 4.48, A 3.99, L 4.28, N 3.52, E 4.34, F 2.86, V 2.28, C 5.56, D 4.14
